These results are taken from paper PMC3601739 (Chemical communications (Cambridge, England), 2013).

Data set [1] concerns the target HIV-1 RRE IIB RNA. Kind of data set: Dot blot assay, 32P-labeled RRE IIB titrated with BPBAs. In kind it is binding. The note with it: read-out: Kd (dissociation constant), 32P-labeled RRE IIB titrated with increasing concentration of peptide, average of at least three experiments.
Data set [2] has as its target HIV-1 RRE IIB RNA. In words: Electrophoretic mobility shift assay. The following applies: read-out: Kd (dissociation constant) determined through EMSA; EMSA with RRE IIB. The data set is classed as binding.
For data set [3], the system named is BPBA1 (synthetic). Kind of data set: EMSA. The note with it: not stated in the material (details in ESI).
The subject of data set [4] is BPBA2 (synthetic). Kind of data set: EMSA. The note with it: not stated in the material (details in ESI). (In general: A gel shift assay detects complexes by their altered migration in electrophoresis.)
Data set [5] has as its system BPBA3 (synthetic). In words: EMSA. The note with it: not stated in the material (details in ESI).
In data set [6] the test system is BPBA1 (synthetic). In words: dot blot. The note with it: not stated in the material (details in ESI).
Another data set has as its system BPBA1.2 (synthetic). Kind of data set: dot blot. The following applies: not stated in the material (details in ESI).
The test system of data set [7] is BPBA2 (synthetic). In words: dot blot. The note with it: not stated in the material (details in ESI).
The test system of data set [8] is BPBA3 (synthetic). Kind of data set: dot blot. The note with it: not stated in the material (details in ESI).
In the next data set the test system is BPBA4 (synthetic). In words: dot blot. The note with it: not stated in the material (details in ESI).
In a further data set the test system is BPBA5 (synthetic). Kind of data set: dot blot. The following applies: not stated in the material (details in ESI).
Another data set concerns BPBA6 (synthetic). Kind of data set: dot blot. The following applies: not stated in the material (details in ESI).
For another data set, the system named is BPBA7 (synthetic). In words: dot blot. The following applies: not stated in the material (details in ESI).
The subject of another data set is BPBA8 (synthetic). Kind of data set: dot blot. The following applies: not stated in the material (details in ESI).

On to (FBPAYFBPA)2 * NKSY [BPBA3], for which the Kd on HIV-1 RRE IIB RNA [1] was found to be 8.7 ± 2.3 µM; on HIV-1 RRE IIB RNA [2], 4.6 ± 2.4 µM.
As for (KBBAKFBPA)2 * KBBAKKY [BPBA2], the Kd on HIV-1 RRE IIB RNA [1] stood at 3.3 ± 1.2 µM.
On the same count and under the same terms, the value for (KBBAYK)2 * HKKY [BPBA8] was 86.5 ± 10 µM.
On the same count and under the same terms, then (KKBBAF)2 * KKWY [BPBA5], with 27.2 ± 6.9 µM; and (KKBBAK)2 * KLKY [BPBA7], with 58.4 ± 4 µM; and (KKKBBA)2 * FBPATSY [BPBA4], with 26.8 ± 4.4 µM.
On to (WKK)2 * KBBAYWY [BPBA1], for which the Kd on HIV-1 RRE IIB RNA [1] was found to be 1.4 ± 0.4 µM.
Take HIV-1 RRE IIB RNA: the Kd was determined as 0.3 µM in the data set on BPBA1 (synthetic) [3]; 0.6 µM in the data set with BPBA2 (synthetic) [4]; 4.6 µM in the data set on BPBA3 (synthetic) [5]; 1.4 µM in the data set on BPBA1 (synthetic) [6]; 0.8 µM in the data set on BPBA1.2 (synthetic); 3.3 µM in the data set on BPBA2 (synthetic) [7]. The Kd in the data set on BPBA3 (synthetic) [8] came to 8.7 µM; in the data set on BPBA4 (synthetic), 26.8 µM; with BPBA5 (synthetic), 27.2 µM; in the data set on BPBA6 (synthetic) it was 28.5 µM; in the data set with BPBA7 (synthetic), 58.4 µM; in the data set with BPBA8 (synthetic), 86.5 µM.
